Experiments:
[1] = target: T1, human FcγRIIA 131H on blood cells of 131H/H donors (human, UniProt P12318 34-317); test: cell-based or functional assay
T1 sequence (looked up): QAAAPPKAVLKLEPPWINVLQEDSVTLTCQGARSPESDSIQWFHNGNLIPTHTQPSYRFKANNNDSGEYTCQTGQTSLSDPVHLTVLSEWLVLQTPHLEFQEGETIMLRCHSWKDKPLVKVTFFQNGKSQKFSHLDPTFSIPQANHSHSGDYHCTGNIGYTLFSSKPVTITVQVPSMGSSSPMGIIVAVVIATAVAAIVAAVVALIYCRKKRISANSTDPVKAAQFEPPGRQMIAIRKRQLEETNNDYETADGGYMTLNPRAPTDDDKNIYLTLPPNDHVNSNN

[2] = target: T2, human FcγRIIA 131R on blood cells of 131R/R donors (human, UniProt P12318 34-317); test: cell-based or functional assay
T2 sequence: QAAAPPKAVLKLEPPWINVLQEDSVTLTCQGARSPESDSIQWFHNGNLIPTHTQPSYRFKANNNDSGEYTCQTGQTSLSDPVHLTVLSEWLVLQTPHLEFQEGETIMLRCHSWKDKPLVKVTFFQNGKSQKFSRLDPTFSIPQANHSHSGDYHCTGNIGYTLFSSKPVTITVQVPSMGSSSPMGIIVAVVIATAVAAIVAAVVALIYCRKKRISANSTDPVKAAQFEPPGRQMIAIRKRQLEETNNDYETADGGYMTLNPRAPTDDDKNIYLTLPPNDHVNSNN

[3] = target: cynomolgus monkey FcγRIIA on blood cells (cynomolgus monkey); test: cell-based or functional assay
[4] = target: T3, recombinant human FcγRI (ELISA coat, generated at MedImmune) (human, UniProt P12314 16-292, limits assumed); test: ELISA on plate-coated FcγRI (2 µg/ml), detection with goat anti-human Fc-HRP
T3 construct: also called CD64
Procedure: (§1) Plates were washed five times with 200 μl of wash buffer (PBS containing 0.1% Tween 20), blocked with blocking buffer containing 5% milk in PBS for 1 hour at room temperature, and washed five additional times with wash buffer. Three-fold serial dilutions of the test antibody or control antibody (R347-Tm) were added to wells in duplicate. Plates were incubated for 2 hours at room temperature, and washed five times with wash buffer. Binding of the antibodies to the FcγRs was detected by adding 50 μl of goat anti-human Fc-HRP (Jackson ImmunoResearch Laboratories, PA) to the wells and incubating for 1 hour at room temperature, washing 10 times, and adding 50 μl TMB substrate (Pierce Biotechnology, MA). The color reaction was stopped with 50 μl 0.2M […] and the absorbance was measured using a spectrophotometer (Molecular Devices, CA) at […].

[5] = target: T4, recombinant FcγRIIB (ELISA coat, generated at MedImmune) (UniProt P31994 43-217, limits assumed); test: ELISA on plate-coated FcγRIIB (2 µg/ml), detection with goat anti-human Fc-HRP
T4 construct: also called CD32B
T4 sequence (looked up): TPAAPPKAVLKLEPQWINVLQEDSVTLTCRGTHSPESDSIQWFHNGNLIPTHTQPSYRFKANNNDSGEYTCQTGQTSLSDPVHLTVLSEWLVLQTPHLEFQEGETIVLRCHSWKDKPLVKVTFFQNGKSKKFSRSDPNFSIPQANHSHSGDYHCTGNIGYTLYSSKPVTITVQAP
Procedure: as §1

[6] = target: T5, recombinant human FcγRIIIA-158F allotype (ELISA coat, generated at MedImmune) (human, UniProt P08637 17-208, limits assumed); test: ELISA on plate-coated FcγRIIIA-158F (2 µg/ml), detection with goat anti-human Fc-HRP
T5 construct: also called FcγRIII-158F allotype; CD16A 158F
Procedure: as §1

[7] = target: T6, recombinant human FcγRIIIA-158V allotype (ELISA coat, generated at MedImmune) (human, UniProt P08637 17-208, limits assumed); test: ELISA on plate-coated FcγRIIIA-158V (2 µg/ml), detection with goat anti-human Fc-HRP
T6 construct: also called FcγRIII-158V allotype; CD16A 158V
Procedure: as §1

[8] = target: T7, recombinant FcγRIIA-131H/H allotype (ELISA coat, generated at MedImmune) (human, UniProt P12318 34-217, limits assumed); test: ELISA on plate-coated FcγRIIA-131H/H (2 µg/ml), detection with goat anti-human Fc-HRP
T7 construct: also called human FcγRIIA; CD32A
T7 sequence (looked up): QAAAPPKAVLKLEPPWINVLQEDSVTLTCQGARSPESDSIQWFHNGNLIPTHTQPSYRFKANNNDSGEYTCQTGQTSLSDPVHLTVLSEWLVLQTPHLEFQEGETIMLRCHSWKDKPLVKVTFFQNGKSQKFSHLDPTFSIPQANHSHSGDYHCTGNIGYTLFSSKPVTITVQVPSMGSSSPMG
Procedure: as §1

[9] = target: T8, Human CD32A 131R extracellular domain, 6xHis_Flag tagged (human, UniProt P12318 34-217); test: HTRF epitope competition: sample IgG titrated against binding of mouse IV.3 IgG to human CD32a 131R
T8 construct: also called Hu CD32A_131Arg; human CD32A_131 Arg
T8 chain: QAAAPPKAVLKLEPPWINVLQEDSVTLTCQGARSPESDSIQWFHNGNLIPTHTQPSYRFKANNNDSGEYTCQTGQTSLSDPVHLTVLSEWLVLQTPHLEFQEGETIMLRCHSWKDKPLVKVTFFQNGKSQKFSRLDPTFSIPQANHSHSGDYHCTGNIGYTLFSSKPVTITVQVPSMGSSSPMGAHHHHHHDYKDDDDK

T6 sequence (P08637 17-208 F176V limits assumed): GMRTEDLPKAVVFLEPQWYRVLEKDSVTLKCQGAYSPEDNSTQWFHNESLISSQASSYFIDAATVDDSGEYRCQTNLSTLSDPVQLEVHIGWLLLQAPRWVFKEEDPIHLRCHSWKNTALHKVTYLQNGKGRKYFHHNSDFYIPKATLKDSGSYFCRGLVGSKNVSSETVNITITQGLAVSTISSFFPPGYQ
T3 sequence (P12314 16-292 limits assumed): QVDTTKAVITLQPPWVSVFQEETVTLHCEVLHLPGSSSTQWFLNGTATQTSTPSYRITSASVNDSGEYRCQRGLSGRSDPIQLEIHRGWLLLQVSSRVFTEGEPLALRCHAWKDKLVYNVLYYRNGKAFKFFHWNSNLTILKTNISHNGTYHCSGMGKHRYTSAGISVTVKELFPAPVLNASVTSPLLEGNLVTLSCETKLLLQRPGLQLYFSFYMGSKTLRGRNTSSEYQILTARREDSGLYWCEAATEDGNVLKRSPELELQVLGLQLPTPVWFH
T5 sequence (P08637 17-208 limits assumed): as the sequence (P08637 17-208 F176V limits assumed) above, with V160F counted along it

B1: CamIV3 (antibody, V domains shown)
VH: QVQLVQSGAEVKKPGASVKVSCKASGYTFTNYGMNWVRQAPGQRLEWMGWLNTYTGESIYPDDFKGRVTITRDTSASTAYMELSSLRSEDTAVYYCARGDYGYDDPLDYWGQGTLVTVSS
VL: DIVMTQSPLSLPVTPGEPASISCRSSKSLLHTLGNTYLHWFLQKPGQSPQLLIYRMSVLASGVPDRFSGSGSGTDFTLKISRVEAEDVGVYYCMQHLEYPLTFGQGTKLEIK
[1]
  IC50 of the loss of surface FcγRIIA (M.F.I of IV.3-Alexa 647) on monocytes, whole blood, 2 h at 37 °C: 0.241 nM
[2]
  IC50 of the loss of surface FcγRIIA (M.F.I of IV.3-Alexa 647) on monocytes, whole blood, 2 h at 37 °C: 0.307 nM
[3]
  IC50 of the loss of surface FcγRIIA (M.F.I of IV.3-Alexa 647) on cynomolgus monocytes, whole blood, 2 h at 37 °C: 10.5 nM

B2: 32LO0356 (antibody, V domains shown)
VH: QVQLVQSGAEVKKPGASVKVSCKASGYTFTNYGMNWVRQAPGQRLEWMGWLNTYTGESYYPDDFKGRVTITRDTSASTAYMELSSLRSEDTAVYYCARGDYGYDDPLDYWGQGTLVTVSS
VL: DIVMTQSPLSLPVTPGEPASISCRSSKSLLHTNFNTYLHWFLQKPGQSPQLLIYRMSVLASGVPDRFSGSGSGTDFTLKISRVEAEDVGVYYCMQHLEYPLTFGQGTKLEIK
[1]
  IC50 of the loss of surface FcγRIIA (M.F.I of IV.3-Alexa 647) on monocytes, whole blood, 2 h at 37 °C: 0.044 nM
[2]
  IC50 of the loss of surface FcγRIIA (M.F.I of IV.3-Alexa 647) on monocytes, whole blood, 2 h at 37 °C: 0.0431 nM
[3]
  IC50 of the loss of surface FcγRIIA (M.F.I of IV.3-Alexa 647) on cynomolgus monocytes, whole blood, 2 h at 37 °C: 3.78 nM

B3: 32LO0351 (antibody, V domains shown)
VH: QVQLVQSGAEVKKPGASVKVSCKASGYTFTNYGMNWVRQAPGQRLEWMGWLNTYTGESYYPDDFKGRVTITRDTSASTAYMELSSLRSEDTAVYYCARGDYGYDDPLDYWGQGTLVTVSS
VL: DIVMTQSPLSLPVTPGEPASISCRSSKSLLHTYGNTYLHWFLQKPGQSPQLLIYRMSVLASGVPDRFSGSGSGTDFTLKISRVEAEDVGVYYCMQHLEYPLTFGQGTKLEIK
[1]
  IC50 of the loss of surface FcγRIIA (M.F.I of IV.3-Alexa 647) on monocytes, whole blood, 2 h at 37 °C: 0.0524 nM
[2]
  IC50 of the loss of surface FcγRIIA (M.F.I of IV.3-Alexa 647) on monocytes, whole blood, 2 h at 37 °C: 0.0559 nM
[3]
  IC50 of the loss of surface FcγRIIA (M.F.I of IV.3-Alexa 647) on cynomolgus monocytes, whole blood, 2 h at 37 °C: 16.4 nM

B4: 32LO0350 (antibody, human IgG1, V domains shown)
VH: QVQLVQSGAEVKKPGASVKVSCKASGYTFTNYGMNWVRQAPGQRLEWMGWLNTYTGESWYPDDFKGRVTITRDTSASTAYMELSSLRSEDTAVYYCARGDYGYDDPLDYWGQGTLVTVSS
VL: DIVMTQSPLSLPVTPGEPASISCRSSKSLLHTNRNTYLHWFLQKPGQSPQLLIYRMSVLASGVPDRFSGSGSGTDFTLKISRVEAEDVGVYYCMQHLEYPLTFGQGTKLEIK
notes: also called optimized IV.3 clone 32LO0350
[1]
  IC50 of the loss of surface FcγRIIA (M.F.I of IV.3-Alexa 647) on monocytes, whole blood, 2 h at 37 °C: 0.0692 nM
[2]
  IC50 of the loss of surface FcγRIIA (M.F.I of IV.3-Alexa 647) on monocytes, whole blood, 2 h at 37 °C: 0.0537 nM
[3]
  IC50 of the loss of surface FcγRIIA (M.F.I of IV.3-Alexa 647) on cynomolgus monocytes, whole blood, 2 h at 37 °C: 1.2 nM
[4]
  binding result: no binding (tested: about 15000 ng/ml)
[5]
  binding result: no binding (tested: about 15000 ng/ml)
[6]
  binding result: no binding (tested: about 15000 ng/ml)
[7]
  binding result: no binding (tested: about 15000 ng/ml)
[8]
  EC50 (read off the curve): ~5 ng/mL
[9]
  binding result: binds

B5: 32LO0354 (antibody, human IgG1, V domains shown)
VH: QVQLVQSGAEVKKPGASVKVSCKASGYTFTNYGMNWVRQAPGQRLEWMGWLNTYTGESYYPDDFKGRVTITRDTSASTAYMELSSLRSEDTAVYYCARGDYGYDDPLDYWGQGTLVTVSS
VL: DIVMTQSPLSLPVTPGEPASISCRSSKSLLHTNRNTYLHWFLQKPGQSPQLLIYRMSVLASGVPDRFSGSGSGTDFTLKISRVEAEDVGVYYCMQHLEYPLTFGQGTKLEIK
notes: also called optimized IV.3 clone 32LO0354
[1]
  IC50 of the loss of surface FcγRIIA (M.F.I of IV.3-Alexa 647) on monocytes, whole blood, 2 h at 37 °C: 0.0417 nM
[2]
  IC50 of the loss of surface FcγRIIA (M.F.I of IV.3-Alexa 647) on monocytes, whole blood, 2 h at 37 °C: 0.039 nM
[3]
  IC50 of the loss of surface FcγRIIA (M.F.I of IV.3-Alexa 647) on cynomolgus monocytes, whole blood, 2 h at 37 °C: 5.14 nM
[4]
  binding result: no binding (tested: about 15000 ng/ml)
[5]
  binding result: no binding (tested: about 15000 ng/ml)
[6]
  binding result: no binding (tested: about 15000 ng/ml)
[7]
  binding result: no binding (tested: about 15000 ng/ml)
[8]
  EC50 (read off the curve): ~5 ng/mL
[9]
  binding result: binds

B6: 32LO0355 (antibody, human IgG1, V domains shown)
VH: QVQLVQSGAEVKKPGASVKVSCKASGYTFTNYGMNWVRQAPGQRLEWMGWLNTYTGESWYPDDFKGRVTITRDTSASTAYMELSSLRSEDTAVYYCARGDYGYDDPLDYWGQGTLVTVSS
VL: DIVMTQSPLSLPVTPGEPASISCRSSKSLLHTNKNTYLHWFLQKPGQSPQLLIYRMSVLASGVPDRFSGSGSGTDFTLKISRVEAEDVGVYYCMQHLEYPLTFGQGTKLEIK
notes: also called optimized IV.3 clone 32LO0355
[1]
  IC50 of the loss of surface FcγRIIA (M.F.I of IV.3-Alexa 647) on monocytes, whole blood, 2 h at 37 °C: 0.0915 nM
[2]
  IC50 of the loss of surface FcγRIIA (M.F.I of IV.3-Alexa 647) on monocytes, whole blood, 2 h at 37 °C: 0.0644 nM
[3]
  IC50 of the loss of surface FcγRIIA (M.F.I of IV.3-Alexa 647) on cynomolgus monocytes, whole blood, 2 h at 37 °C: 1.01 nM
[4]
  binding result: no binding (tested: about 15000 ng/ml)
[5]
  binding result: no binding (tested: about 15000 ng/ml)
[6]
  binding result: no binding (tested: about 15000 ng/ml)
[7]
  binding result: no binding (tested: about 15000 ng/ml)
[8]
  EC50 (read off the curve): ~5 ng/mL
[9]
  binding result: binds
